Substitutions are numbered along the chain they refer to. In names and notes the source's numbering stands. One block for each binder: values may come before it.
Key:
[1] = target: T1, scCD94/NKG2A-mFc, Fc-fusion protein of murine IgG1 fused at the C-terminus with a single-chain construct of … (mouse; human, UniProt Q13241 32-179); experiment: SPR Biacore T100, sc-NKG2A-CD94-mFc immobilized
[2] = target: T1, scCD94/NKG2A-mFc, Fc-fusion protein of …; experiment: SPR Biacore T100, sc-NKG2A-CD94-mFc immobilized, antibody 1.25-10 nM
[3] = target: T1, scCD94/NKG2A-mFc, Fc-fusion protein of …; experiment: SPR Biacore T100, sc-NKG2A-CD94-mFc immobilized, binding level (RU) divided by that of chimZ199
[4] = target: T2, human CD94/NKG2A receptor on cells (Ba/F3 cells over-expressing CD94/NKG2A; NKL cells) (human, UniProt Q13241 1-179); experiment: flow cytometry on Ba/F3-CD94/NKG2A cells
T2 construct: whole, on cells; also called Ba/F3-CD94/NKG2A
T2 sequence (chain, as listed by the source, chain 1 of 2): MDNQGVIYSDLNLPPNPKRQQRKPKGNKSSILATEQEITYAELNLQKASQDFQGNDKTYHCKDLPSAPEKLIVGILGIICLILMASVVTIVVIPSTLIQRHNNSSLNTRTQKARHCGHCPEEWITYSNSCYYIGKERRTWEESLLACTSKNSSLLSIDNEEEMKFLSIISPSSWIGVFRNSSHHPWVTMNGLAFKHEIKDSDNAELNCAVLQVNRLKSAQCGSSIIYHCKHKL
T2 sequence (Q13241 whole entry, chain 2 of 2): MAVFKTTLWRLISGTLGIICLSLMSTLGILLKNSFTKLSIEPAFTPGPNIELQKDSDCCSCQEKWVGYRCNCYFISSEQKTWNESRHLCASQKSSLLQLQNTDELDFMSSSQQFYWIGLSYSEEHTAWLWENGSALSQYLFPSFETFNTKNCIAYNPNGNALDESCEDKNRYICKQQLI

T1 sequence (Q13241 other isoform, or with tags, fused parts or gaps): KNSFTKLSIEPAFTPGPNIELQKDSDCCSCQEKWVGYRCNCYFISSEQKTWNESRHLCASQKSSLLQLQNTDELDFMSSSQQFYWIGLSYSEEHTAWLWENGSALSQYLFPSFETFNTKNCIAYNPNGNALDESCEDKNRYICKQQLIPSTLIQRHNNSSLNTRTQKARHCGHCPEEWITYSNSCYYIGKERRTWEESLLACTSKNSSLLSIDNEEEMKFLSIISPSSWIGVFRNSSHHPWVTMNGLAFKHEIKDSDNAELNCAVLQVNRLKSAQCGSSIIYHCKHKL

B1: HumZ199 (LC: L46P) (antibody, name in Kabat numbering, V domains shown)
VH: EVQLVESGGGLVKPGGSLRLSCAASGFTFSSYAMSWVRQAPGKGLEWVSEISSGGSYTYYADSVKGRFTISRDNAKNSLYLQMNSLRAEDTAVYYCARHGDYPRFFDVWGQGTTVTVSS
VL: EIVLTQSPATLSLSPGERATLSCSASSSVSSYIYWYQQKPGQAPRPLIYLTSNLASGIPARFSGSGSGTDFTLTISSLEPEDFAVYYCQQWSGNPYTFGQGTKLEIK
notes: also called huZ199(LC:L46P); humZ199 with single back mutation L46P in the light chain
- fold difference of affinity against chimeric Z199 [1]: 2.7 fold
- Kd [2]: 0.072 nM
- koff [2]: 0.000122 s⁻¹
- kon [2]: 1.7e+06 M⁻¹ s⁻¹

B3: chimZ199 heavy-chain alanine mutant Y56A (antibody, human IgG4, name in Kabat numbering, V domains shown)
VH: EVQLVESGGGLVKPGGSLKLSCAASGFTFSSYAMSWVRQSPEKRLEWVAEISSGGSATYYPDTVTGRFTISRDNAKNTLYLEISSLRSEDTAMYYCTRHGDYPRFFDVWGAGTTVTVSS
VL: QIVLTQSPALMSASPGEKVTMTCSASSSVSYIYWYQQKPRSSPKPWIYLTSNLASGVPARFSGSGSGTSYSLTISSMEAEDAATYYCQQWSGNPYTFGGGTKLEIKR
notes: Ala-scan mutant made on chimZ199 (human IgG4 constant domains); Kabat numbering; also called HC: Y56A
- relative binding against chimZ199 [3]: ~40%

B5: chimZ199 heavy-chain alanine mutant Y98A (antibody, human IgG4, name in Kabat numbering, V domains shown)
VH: B3 VH with A57Y, Y102A
VL: B3 VL
notes: Ala-scan mutant made on chimZ199 (human IgG4 constant domains); Kabat numbering; also called HC: Y98A
- relative binding against chimZ199 [3]: ~40%

B7: chimZ199 heavy-chain alanine mutant P99A (antibody, human IgG4, name in Kabat numbering, V domains shown)
VH: B3 VH with A57Y, P103A
VL: B3 VL
notes: Ala-scan mutant made on chimZ199 (human IgG4 constant domains); Kabat numbering; also called HC: P99A
- relative binding against chimZ199 [3]: ~40%

B9: murine anti-NKG2A antibody Z199 (antibody, V domains shown)
VH: B3 VH with A57Y
VL: B3 VL
notes: Mouse monoclonal antibody (Beckman Coulter IM2750) and its recombinant form recZ199 made in HEK293 cells; also called recZ199; Z199 (rec)
- binding result [4]: binds

Second part, the binder after the results:

- Kd [2]: 0.0243 nM
- koff [2]: 4.17e-05 s⁻¹
- kon [2]: 1.72e+06 M⁻¹ s⁻¹
B2: chimeric Z199 with a human IgG4(S241P) portion (antibody, V domains shown)
VH: B3 VH with A57Y
VL: B3 VL
notes: also called chimZ199; ChimZ199

- relative binding against chimZ199 [3]: ~40%
B4: chimZ199 light-chain alanine mutant Y32A (antibody, human IgG4, name in Kabat numbering, V domains shown)
VH: B3 VH with A57Y
VL: B3 VL with Y31A
notes: Ala-scan mutant made on chimZ199 (human IgG4 constant domains); also called LC: Y32A

- relative binding against chimZ199 [3]: ~40%
B6: chimZ199 light-chain alanine mutant L50A (antibody, human IgG4, name in Kabat numbering, V domains shown)
VH: B3 VH with A57Y
VL: B3 VL with L49A
notes: Ala-scan mutant made on chimZ199 (human IgG4 constant domains); also called LC: L50A

- relative binding against chimZ199 [3]: ~40%
B8: chimZ199 light-chain alanine mutant P95A (antibody, human IgG4, name in Kabat numbering, V domains shown)
VH: B3 VH with A57Y
VL: B3 VL with P94A
notes: Ala-scan mutant made on chimZ199 (human IgG4 constant domains); also called LC: P95A
